# Results reported in US20100104564A1 (published 2010).
# B1: anti-CD30 antibody (5F11) variant E345W (antibody)
# heavy: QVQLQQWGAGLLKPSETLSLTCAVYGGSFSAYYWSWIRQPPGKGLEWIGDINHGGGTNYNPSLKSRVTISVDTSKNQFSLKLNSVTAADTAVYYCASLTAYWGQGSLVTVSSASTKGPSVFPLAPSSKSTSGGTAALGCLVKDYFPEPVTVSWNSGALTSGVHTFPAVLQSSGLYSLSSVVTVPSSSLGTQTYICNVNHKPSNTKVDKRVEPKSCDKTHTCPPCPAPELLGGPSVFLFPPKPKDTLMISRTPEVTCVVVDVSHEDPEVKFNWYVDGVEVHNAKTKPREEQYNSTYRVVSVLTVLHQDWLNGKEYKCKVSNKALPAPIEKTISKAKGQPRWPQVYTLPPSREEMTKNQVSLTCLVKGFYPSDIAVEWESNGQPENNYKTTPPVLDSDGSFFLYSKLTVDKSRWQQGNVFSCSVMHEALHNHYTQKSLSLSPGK
# light: DIQMTQSPTSLSASVGDRVTITCRASQGISSWLTWYQQKPEKAPKSLIYAASSLQSGVPSRFSGSGSGTDFTLTISSLQPEDFATYYCQQYDSYPITFGQGTRLEIKRTVAAPSVFIFPPSDEQLKSGTASVVCLLNNFYPREAKVQWKVDNALQSGNSQESVTEQDSKDSTYSLSSTLTLSKADYEKHKVYACEVTHQGLSSPVTKSFNRGEC
# notes: Single Fc substitution in the 5F11 antibody; EU numbering, not the numbering of the UniProt entry
# B2: anti-CD30 antibody (5F11) variant S254W (antibody)
# heavy: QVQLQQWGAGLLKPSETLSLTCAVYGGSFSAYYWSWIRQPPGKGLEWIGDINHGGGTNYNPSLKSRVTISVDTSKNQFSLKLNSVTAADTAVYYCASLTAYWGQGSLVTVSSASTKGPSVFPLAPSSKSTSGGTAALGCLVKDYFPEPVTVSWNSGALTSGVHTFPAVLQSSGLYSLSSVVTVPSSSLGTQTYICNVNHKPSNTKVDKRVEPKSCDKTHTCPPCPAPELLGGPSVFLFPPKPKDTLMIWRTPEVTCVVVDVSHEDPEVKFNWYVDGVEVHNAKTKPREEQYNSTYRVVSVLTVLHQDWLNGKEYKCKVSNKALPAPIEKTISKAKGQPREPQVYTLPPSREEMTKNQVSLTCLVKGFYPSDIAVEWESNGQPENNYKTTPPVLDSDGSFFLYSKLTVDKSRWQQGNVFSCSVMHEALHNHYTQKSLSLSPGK
# light: B1 light
# notes: Single Fc substitution in the 5F11 antibody; EU numbering, not the numbering of the UniProt entry; copies: 2 + 2
# B3: anti-CD30 antibody (5F11) variant G446W (antibody)
# heavy: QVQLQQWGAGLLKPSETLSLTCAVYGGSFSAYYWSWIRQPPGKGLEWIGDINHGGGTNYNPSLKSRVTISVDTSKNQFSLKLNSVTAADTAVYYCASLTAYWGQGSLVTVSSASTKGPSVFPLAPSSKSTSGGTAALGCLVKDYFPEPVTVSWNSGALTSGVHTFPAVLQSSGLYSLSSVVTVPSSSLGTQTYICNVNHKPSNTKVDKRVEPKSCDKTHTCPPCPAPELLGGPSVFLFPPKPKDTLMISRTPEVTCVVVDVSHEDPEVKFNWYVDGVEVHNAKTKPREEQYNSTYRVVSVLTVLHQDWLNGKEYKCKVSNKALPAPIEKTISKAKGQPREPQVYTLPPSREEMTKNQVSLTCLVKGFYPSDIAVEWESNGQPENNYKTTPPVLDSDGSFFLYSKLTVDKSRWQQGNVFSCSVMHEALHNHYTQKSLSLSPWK
# light: B1 light
# notes: as for B2
# B4: anti-CD30 antibody (5F11) variant A378P (antibody)
# heavy: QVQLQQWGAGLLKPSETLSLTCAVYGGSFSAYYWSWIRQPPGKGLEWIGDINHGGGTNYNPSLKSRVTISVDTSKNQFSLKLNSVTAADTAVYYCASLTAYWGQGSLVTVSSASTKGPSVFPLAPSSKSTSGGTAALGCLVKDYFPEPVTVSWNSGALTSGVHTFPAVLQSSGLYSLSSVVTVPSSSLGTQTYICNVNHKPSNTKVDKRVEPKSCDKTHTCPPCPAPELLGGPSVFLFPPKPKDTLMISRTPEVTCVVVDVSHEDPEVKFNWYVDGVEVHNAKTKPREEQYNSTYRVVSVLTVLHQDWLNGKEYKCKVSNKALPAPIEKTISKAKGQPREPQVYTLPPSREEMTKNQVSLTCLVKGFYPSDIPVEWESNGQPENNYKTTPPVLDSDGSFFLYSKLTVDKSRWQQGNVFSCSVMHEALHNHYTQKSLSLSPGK
# light: B1 light
# notes: as for B2
# B5: anti-CD30 antibody (5F11) variant P247I (antibody)
# heavy: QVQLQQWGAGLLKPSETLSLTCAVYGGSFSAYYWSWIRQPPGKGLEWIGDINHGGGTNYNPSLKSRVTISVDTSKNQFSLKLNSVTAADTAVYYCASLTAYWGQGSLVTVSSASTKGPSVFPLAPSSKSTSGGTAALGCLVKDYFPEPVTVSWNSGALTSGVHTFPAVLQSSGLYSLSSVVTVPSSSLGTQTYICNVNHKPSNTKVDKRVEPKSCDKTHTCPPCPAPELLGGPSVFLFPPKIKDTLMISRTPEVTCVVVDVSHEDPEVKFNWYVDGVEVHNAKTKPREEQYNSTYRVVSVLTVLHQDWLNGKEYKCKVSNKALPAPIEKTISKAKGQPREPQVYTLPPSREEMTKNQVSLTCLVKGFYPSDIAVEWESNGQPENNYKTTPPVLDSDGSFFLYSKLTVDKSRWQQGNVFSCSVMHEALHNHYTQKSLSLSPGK
# light: B1 light
# notes: as for B2
# B6: anti-CD30 antibody (5F11) variant P396I (antibody)
# heavy: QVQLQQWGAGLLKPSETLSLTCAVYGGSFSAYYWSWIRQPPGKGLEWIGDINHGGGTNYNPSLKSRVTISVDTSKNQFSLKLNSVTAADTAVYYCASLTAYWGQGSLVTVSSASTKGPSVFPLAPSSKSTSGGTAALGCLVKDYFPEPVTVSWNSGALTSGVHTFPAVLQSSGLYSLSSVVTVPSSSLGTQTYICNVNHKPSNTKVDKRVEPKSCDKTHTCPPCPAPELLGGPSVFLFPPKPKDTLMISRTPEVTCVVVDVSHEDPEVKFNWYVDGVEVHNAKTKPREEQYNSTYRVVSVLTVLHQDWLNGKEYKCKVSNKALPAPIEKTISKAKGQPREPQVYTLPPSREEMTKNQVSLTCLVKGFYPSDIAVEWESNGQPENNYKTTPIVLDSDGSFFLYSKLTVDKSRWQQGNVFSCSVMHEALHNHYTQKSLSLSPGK
# light: B1 light
# notes: as for B2
# B7: anti-CD30 antibody (5F11) variant S426W (antibody)
# heavy: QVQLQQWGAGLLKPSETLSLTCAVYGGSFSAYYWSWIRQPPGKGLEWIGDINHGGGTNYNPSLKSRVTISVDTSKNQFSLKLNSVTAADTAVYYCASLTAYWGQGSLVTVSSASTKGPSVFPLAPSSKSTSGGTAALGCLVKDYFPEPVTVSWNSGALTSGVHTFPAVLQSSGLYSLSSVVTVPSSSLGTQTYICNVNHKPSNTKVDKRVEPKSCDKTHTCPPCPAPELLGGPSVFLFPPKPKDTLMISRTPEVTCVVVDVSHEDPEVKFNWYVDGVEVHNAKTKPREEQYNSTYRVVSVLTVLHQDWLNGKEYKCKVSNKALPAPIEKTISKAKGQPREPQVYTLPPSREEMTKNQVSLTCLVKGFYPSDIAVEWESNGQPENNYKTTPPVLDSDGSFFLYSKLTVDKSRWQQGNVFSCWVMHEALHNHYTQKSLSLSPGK
# light: B1 light
# notes: as for B2
# B8: anti-CD30 antibody (5F11) variant D376T (antibody)
# heavy: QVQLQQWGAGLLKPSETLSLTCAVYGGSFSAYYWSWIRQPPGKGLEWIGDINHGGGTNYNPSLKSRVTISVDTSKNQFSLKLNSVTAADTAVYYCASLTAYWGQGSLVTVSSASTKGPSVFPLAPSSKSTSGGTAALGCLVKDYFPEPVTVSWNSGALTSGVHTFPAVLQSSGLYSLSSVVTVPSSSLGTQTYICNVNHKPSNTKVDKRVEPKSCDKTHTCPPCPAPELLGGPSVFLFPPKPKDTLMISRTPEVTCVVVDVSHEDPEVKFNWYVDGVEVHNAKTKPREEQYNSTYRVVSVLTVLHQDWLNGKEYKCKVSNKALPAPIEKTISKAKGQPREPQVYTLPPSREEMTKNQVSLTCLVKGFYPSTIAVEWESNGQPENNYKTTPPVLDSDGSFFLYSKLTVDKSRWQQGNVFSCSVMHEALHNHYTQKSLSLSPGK
# light: B1 light
# notes: as for B2
# B9: anti-CD30 antibody (5F11) variant F404W (antibody)
# heavy: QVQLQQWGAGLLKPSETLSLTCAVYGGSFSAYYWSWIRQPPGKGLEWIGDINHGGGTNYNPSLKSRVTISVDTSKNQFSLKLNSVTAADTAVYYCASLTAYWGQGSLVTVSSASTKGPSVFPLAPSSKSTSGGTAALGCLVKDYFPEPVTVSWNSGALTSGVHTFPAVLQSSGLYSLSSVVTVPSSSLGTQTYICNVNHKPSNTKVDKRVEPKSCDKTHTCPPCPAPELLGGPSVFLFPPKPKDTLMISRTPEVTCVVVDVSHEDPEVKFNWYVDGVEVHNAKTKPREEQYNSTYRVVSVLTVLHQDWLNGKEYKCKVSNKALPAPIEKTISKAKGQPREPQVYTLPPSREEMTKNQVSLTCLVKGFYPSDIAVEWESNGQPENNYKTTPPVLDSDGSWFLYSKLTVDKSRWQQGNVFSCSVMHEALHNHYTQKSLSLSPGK
# light: B1 light
# notes: as for B2
# B10: anti-CD30 antibody (5F11) variant S354R (antibody)
# heavy: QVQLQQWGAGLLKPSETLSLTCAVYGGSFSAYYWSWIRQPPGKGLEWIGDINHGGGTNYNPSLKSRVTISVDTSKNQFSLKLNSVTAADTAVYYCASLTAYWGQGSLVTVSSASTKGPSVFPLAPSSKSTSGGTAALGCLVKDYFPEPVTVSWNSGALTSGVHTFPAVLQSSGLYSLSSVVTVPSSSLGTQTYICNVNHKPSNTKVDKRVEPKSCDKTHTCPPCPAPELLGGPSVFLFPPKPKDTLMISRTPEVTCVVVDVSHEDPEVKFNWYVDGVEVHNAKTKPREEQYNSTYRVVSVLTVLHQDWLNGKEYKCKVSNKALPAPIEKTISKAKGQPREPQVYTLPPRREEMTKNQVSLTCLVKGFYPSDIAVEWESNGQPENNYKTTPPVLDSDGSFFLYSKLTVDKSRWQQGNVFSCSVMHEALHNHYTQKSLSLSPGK
# light: B1 light
# notes: as for B2
# B11: anti-CD30 antibody (5F11) variant E356K (antibody)
# heavy: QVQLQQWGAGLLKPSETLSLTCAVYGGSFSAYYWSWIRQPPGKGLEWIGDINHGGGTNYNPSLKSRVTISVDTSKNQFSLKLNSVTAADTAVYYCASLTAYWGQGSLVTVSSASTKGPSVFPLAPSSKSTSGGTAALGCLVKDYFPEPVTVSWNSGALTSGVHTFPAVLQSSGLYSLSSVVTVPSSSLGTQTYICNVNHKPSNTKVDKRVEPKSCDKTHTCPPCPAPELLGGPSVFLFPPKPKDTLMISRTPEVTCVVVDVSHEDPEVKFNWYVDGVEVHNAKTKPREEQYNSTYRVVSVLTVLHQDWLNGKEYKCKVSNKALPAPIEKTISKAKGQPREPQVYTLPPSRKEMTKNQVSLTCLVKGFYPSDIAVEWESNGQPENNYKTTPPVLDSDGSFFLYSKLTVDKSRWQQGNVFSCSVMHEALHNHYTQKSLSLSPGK
# light: B1 light
# notes: Single Fc substitution in the 5F11 antibody; EU numbering; copies: 2 + 2
# Molecular target: T1, human FcRn (recombinant soluble receptor, 6XHis, co-expressed with beta2 microglobulin) (human, UniProt P61769 21-119)
# T1 construct: purified on nickel; also called huFcRn
# Assay: Luminex assay, pH 6
# Description: FcRn binding by single and multiple substitution variants was also assessed. The fold difference in binding as compared to wild type anti-CD30 (unaltered Fc) was measured in luminex assays.
row,FcRn binding at pH 6 (fold difference vs wild type anti-CD30),Binder
1,1.3 fold vs wild type,B1
2,0.2 fold vs wild type,B2
3,1.1 fold vs wild type,B3
4,0.6 fold vs wild type,B4
5,1.1 fold vs wild type,B5
6,1.4 fold vs wild type,B6
7,0.6 fold vs wild type,B7
8,1.6 fold vs wild type,B8
9,1.7 fold vs wild type,B9
10,1.3 fold vs wild type,B10
11,1.4 fold vs wild type,B11
